The record followed here is patent publication US20160282364A1, “ASSAY FOR INSULIN-DEGRADING ENZYME (IDE) INHIBITORS” (PRESIDENT AND FELLOWS OF HARVARD COLLEGE, priority 2013, published 2016).

For this experiment, the target named is IDE (UniProt P14735). Briefly: enzyme inhibition (double inhibitor plot); 1x IC50.

In general, IC50 refers to the concentration that inhibits the measured activity by half.

Bacitracin: the IC50 stood at 10 µM.
